Reference: patent publication US20200207853A1 (PHANES THERAPEUTICS, published 2020)
Positions count from the first letter of the chain named. Each block holds one binder with its values, some of them ahead of it.

Biological target: T1, Recombinant human CD47(ECD)-HIS (human, UniProt Q08722 19-139, limits assumed)
T1 construct: also called huCD47-HIS; not shown: HIS tag
Assay: competition ELISA: blocking of SIRPα binding to CD47(ECD)-HIS

T1 sequence (Q08722 19-139 limits assumed): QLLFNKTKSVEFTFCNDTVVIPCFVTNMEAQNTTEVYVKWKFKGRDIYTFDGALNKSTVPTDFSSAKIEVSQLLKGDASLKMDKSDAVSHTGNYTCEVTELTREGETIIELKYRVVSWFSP

- IC50: 9.56 nM
B1: H2L3 (antibody, V domains shown)
VH: QVQLVQSGAEVKKPGASVKLSCKASGYTFTSYWMHWVRQAPGQGLEWMGNIDPSDSETHYNQKFKDRVTLTVDTSTSTAYMELSSLRSEDTAVYYCSRWGYYGKSAMDYWGQGTLVTVSS
VL: AVQLTQSPSFLSASVGQRITINCRASKSISKYLAWYQEKPGKANKLLIYSGSTLQSGIPSRFSGSGSGTDFTLTISSLQPEDFAMYYCQQHNEYPWTFGGGTKVEIK
notes: also called humanized anti-CD47 mAb H2L3

- IC50: 9.6 nM
B2: H3L9 (antibody, V domains shown)
VH: B1 VH with M48I, V68A
VL: B1 VL with A1D, Q17D, I19V, N22T, E38Q, I58V, D70E
notes: also called humanized anti-CD47 mAb H3L9

- IC50: 4.73 nM
B3: H2L1 (antibody, V domains shown)
VH: B1 VH
VL: B1 VL with Q17D, I19V, N22T, E38Q, I58V, D70E
notes: also called humanized anti-CD47 mAb H2L1

- IC50: 7.88 nM
B4: H3L2 (antibody, V domains shown)
VH: B1 VH with M48I, V68A
VL: B1 VL with E38Q, I58V, D70E
notes: also called humanized anti-CD47 mAb H3L2

- IC50: 6.8 nM
B5: H1L2 (antibody, V domains shown)
VH: B1 VH with L20V, A79V
VL: B1 VL with E38Q, I58V, D70E
notes: Humanized from mouse 13B18A; also called humanized anti-CD47 mAb H1L2

- IC50: 8.09 nM
B6: H1L4 (antibody, V domains shown)
VH: B1 VH with L20V, A79V
VL: B1 VL with L4I, R18T, Q79E
notes: also called humanized anti-CD47 mAb H1L4

- IC50: 5.35 nM
B7: H3L4 (antibody, V domains shown)
VH: B1 VH with M48I, V68A
VL: B1 VL with L4I, R18T, Q79E
notes: also called humanized anti-CD47 mAb H3L4

- IC50: 6.52 nM
B8: H2L4 (antibody, V domains shown)
VH: B1 VH
VL: B1 VL with L4I, R18T, Q79E
notes: also called humanized anti-CD47 mAb H2L4

- IC50: 7.43 nM
B9: H1L3 (antibody, V domains shown)
VH: B1 VH with L20V, A79V
VL: B1 VL
notes: also called humanized anti-CD47 mAb H1L3

- IC50: 1.05 nM
B10: H8L10 (antibody, V domains shown)
VH: QVQLVQSGAEVKKPGASVKVSCKASGYTFTSYWMHWVRQAPGQGLEWIGNIDPSDSETHYAQKFQGRVTLTVDKSTSTVYMELSSLRSEDTAVYYCAGTDLAYWGQGTLVTVSS
VL: EIVMTQSPGTLSLSPGERATLSCHASQNINVWLSWYQQKPGQAPRLLIYKASNLHTGIPDRFSGSGSGTDFTLTISRLEPEDFAVYYCQQGQSYPFTFGQGTKVEIK
notes: Humanized from mouse 17C6A; also called humanized anti-CD47 mAb H8L10

- IC50: 9.67 nM
B11: H6L5 (antibody, V domains shown)
VH: QIQLVQSGAEVKKPGASVKVSCKASGYTFTAYYINWVRQAPGQRLEWIGWIYPGSGNTKYNEKFKGRVTLTVDTSASTAYIELSSLRSEDTAVYFCARRGPWYFDVWGQGTTVTVSS
VL: EIVMTQSPATLSLSPGERATLSCRASENVGTYVSWYQQKPGQAPNLLIYGASNRYTGIPARFSGSGSGTDFTLTISSLQPEDFAVYHCGQTYSYPLTFGQGTKLEIK
notes: also called humanized anti-CD47 mAb H6L5

- IC50: 15.1 nM
B12: H5L5 (antibody, V domains shown)
VH: B11 VH with F95Y
VL: B11 VL
notes: also called humanized anti-CD47 mAb H5L5

- IC50: 13.2 nM
B13: H6L8 (antibody, V domains shown)
VH: B11 VH
VL: B11 VL with E1N, R24K, A43S, I58V, A60D, G68A, V85D
notes: also called humanized anti-CD47 mAb H6L8

- IC50: 39.2 nM
B14: H6L7 (antibody, V domains shown)
VH: B11 VH
VL: B11 VL with R24K, A43S, A60D
notes: also called humanized anti-CD47 mAb H6L7
